Binding signal and binding signal (fold preference over unmethylated oligo) data for three substances are collected here from patent US20130017541.

Series [1] has as its system DpnI biotinylated (bDpnI). The series is described as follows: pulldown.
The test system of series [2] is anti-N6-methyladenine mouse polyclonal antisera (Mus musculus). The series is described as follows: ELONA. Conditions: N6-methyladenine at position 6 (printed as marked A) [6 (N6-methyladenine)]; oligo ELISA, antisera 1:10,000. For orientation: In an ELISA, binding on a coated surface is turned into a signal by an enzyme label.
The test system of series [3] is anti-N6-methyladenine monoclonal antibody (best hybridoma) (Mus musculus). As to the kind of experiment: ELONA. The note with it: N6-methyladenine at position 6 (printed as marked A) [6 (N6-methyladenine)]; nearly 40 fold discrimination.

Regarding E. coli genomic DNA, the binding signal in series [1] (N6-methyladenine at GATC (dam), 10 ng E. coli DNA in 1 ug human DNA, at least 30% at pg input) is more than 80 % recovered.
Turning to GCAGGATCAACAGTCACACT [N6mA oligo], the values for the binding signal (fold preference over unmethylated oligo) in series [2] and in series [3] were more than 10 and 40, respectively.
In series [1] (1 ug human DNA, one wash, reduced to 1% with three washes), human genomic DNA showed a binding signal of 10 % recovered.
